Experimental data published in patent US20250250357A1 (NANJING ZAIMING PHARMACEUTICAL, published 2025).

Assays:
[1] = molecular target: T1, human MSLN-R3 protein (Met487-Ser606 of NCBI AAH09272.1) expressed on HEK293T-hMSLN-R3 cells (human, UniProt Q13421 487-606); test: FACS on HEK293T-hMSLN-R3 cells
T1 construct: also called Region3
Protocol: (§1) The desired cells were expanded to the logarithmic growth phase in a T-75 cell culture flask. […] After the cells from the previous step were subjected to cell counting, the cell pellet was resuspended to 2×10⁶ cells/mL in a blocking buffer of [PBS+2% (w/w) BSA] and added into a 96-well FACS reaction plate at 50 μL/well. A chimeric antibody (a sample to be tested) was added at 50 μL/well, and the plate was incubated on ice for 2 h. […] After the plate was centrifuged and washed 5 times with a PBST buffer, assay and analysis were performed by FACS (FACS CantoII, purchased from BD). Data analysis was performed by software (Flowjo) to obtain the mean fluorescence intensity (MFI) of the cells.

[2] = molecular target: T2, human MSLN full-length protein (NCBI: AAH09272.1) expressed on HEK293T-hMSLN-B8 cells (human, UniProt Q13421 296-598); test: FACS on HEK293T-hMSLN-B8 cells
T2 construct: Whole encoded precursor
Protocol: as §1

[3] = molecular target: T3, human MSLN protein endogenously expressed on OVCAR3 tumor cells (human, UniProt Q13421 296-598); test: FACS on OVCAR3 cells
T3 construct: whole, on cells; Endogenous target on OVCAR3 cells; kept apart from the recombinant full-length construct; also called mesothelin
T3 sequence (Q13421 other isoform, or with tags, fused parts or gaps): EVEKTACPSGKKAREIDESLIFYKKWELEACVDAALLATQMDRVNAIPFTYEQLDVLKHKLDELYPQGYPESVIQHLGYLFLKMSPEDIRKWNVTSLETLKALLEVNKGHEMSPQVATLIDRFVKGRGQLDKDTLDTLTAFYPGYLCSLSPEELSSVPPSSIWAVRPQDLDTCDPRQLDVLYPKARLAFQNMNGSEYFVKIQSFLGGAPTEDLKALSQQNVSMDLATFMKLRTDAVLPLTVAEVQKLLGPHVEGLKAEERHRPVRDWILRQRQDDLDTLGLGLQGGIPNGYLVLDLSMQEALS
Protocol: as §1

T1 sequence (Q13421 495-614): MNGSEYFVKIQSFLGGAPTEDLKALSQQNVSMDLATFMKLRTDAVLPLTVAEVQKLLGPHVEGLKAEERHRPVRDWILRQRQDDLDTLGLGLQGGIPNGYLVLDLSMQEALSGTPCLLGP
T2 sequence (Q13421 other isoform, or with tags, fused parts or gaps limits assumed): as the sequence (Q13421 other isoform, or with tags, fused parts or gaps) above, with R14P counted along it

Binder | Maximum mean fluorescence intensity [1] | binding result [1] | EC50 [2] [nM] | Maximum mean fluorescence intensity [2] | Maximum mean fluorescence intensity [3] | EC50 [3] [nM]
S009-F2.38.12 (antibody, human IgG1, kappa, V domains shown, human-murine chimeric antibody, human IgG1/kappa constant regions) VH: QVQLQQPGTELVKPGASVKLSCKASGYTFTSYWMHWVKQRPGQGLEWIGNINPSNGGTNYNEKIKNKATLTVDKSSSTAYMQLSSLTSEDSAVYYCARWNYYGNYPFDYWGQGTTLTVSS VL: DIVMTQSQKFMSTTVGDRVSITCKASQNVGTAVAWYQQKPGQSPKLLIYSASNRYTGVPDRFTGSGSGTDFTLTISNMQSEDLADYFCQQYSSYPLTFGAGTKLELKR | 136 | no binding | ~0.82 | 97700 | 4510 | –
S009-F2.58.8 (antibody, human IgG1, kappa, V domains shown, human-murine chimeric antibody, human IgG1/kappa constant regions) VH: QVQLLQSGAELAKPGASVKLSCKASGYTFTSYWVHWVKQRPGQGLEWIGYINPNSGYTKYNQKFKDKATLTADKSSSTAYMQLSSLTYEDSAVYYCADHYYGSSRDYFDYWGQGTTLTVSS VL: QIVLTQSPAIMSASPGEKVTMTCSASSSVSYMYWYQQRPGSSPRLLIYDTSNLASGVPVRFSGSGSGTSYSLTISRMEAEDAATYYCQQWNSYPYTFGGGTKLEIKR | 366 | no binding | 3.5 | 141000 | 13100 | 1.82
